# Test results published in patent publication US20090143241.
# How the values were obtained:
# [1] = test system: GFP-tag (EGFP with the tmRNA peptide tag AANDENYALAA at the C terminus) [GFP: P42212]
# [2] = test system: IXP1, cyclic SGWYGRRH peptide
Substance,KM of GFP-tag degradation (ClpXP with SspB) [1],"KM of GFP-tag degradation (ClpXP with SspB, no cyclic peptide) [1]",kcat of GFP-tag degradation (ClpXP with SspB) [1],"kcat of GFP-tag degradation (ClpXP with SspB, no cyclic peptide) [1]",rate of GFP-tag proteolysis [2],rate of ClpX ATP hydrolysis [2],rate of ClpX ATP hydrolysis with GFP-tag included [2]
ClpXP protease (E. coli ClpX6 with ClpP14),KM=0.74±0.04,KM=0.74±0.04 µM,kcat=1.79±0.08 min-1,kcat=1.79±0.08 min^-1,Inclusion of purified IXP1 reduced the rate of GFP-tag proteolysis,–,–
"ClpX (E. coli), N-terminally His6-tagged",–,–,–,–,–,The rate of ClpX ATP hydrolysis was not inhibited by IXP1 at concentrations up to 200 µM,IXP1 still had no effect on ClpX activity
